Results: patent publication US20200199244A1 (published 2020)
Positions count from the first letter of the chain named. Values joined by “and” are separate entries in the source; they are usually repeats but may differ in a detail not shown here. Equal values may be shown once.

B1: BMS3h-37-2 (other)
VH: EVQLLESGGGLVQPGGSLRLSCAASGFTFEWYEMQWVRRAPGKGLEWVSAISGDGYRTYYADSVKGRFTISRDNSKNTLYLQMNSLRAEDTAVYYCAKELGYFDYWGRGTLVTVSS
B2: BMS3h-38 (other)
VH: EVQLLESGGGLVQPGGSLRLSCAASGFTFEEEEMIWVRQAPGKGLEWVSAISGSGGSTYYADSVKGRFTISRDNSKNTLYLQMNSLRAEDTAVYYCAKEPFRFDYWGQGTLVTVSS
B3: BMS3h-38-2 (other)
VH: B2 VH with E6A, A97G, F103Y
B4: BMS3h-56-201 (other)
VH: EVQLLESGGGLVQPGGSLRLSCAASGFTFRDYEMWWVRQAPGKGLERVSAINPQGTRTYYADSVKGRFTISRDNSKNTLYLQMNSLRAEDTAVYYCAKLPFYFQEWGQGTLVTVSS
notes: domain antibody (dAb): single human VH domain
B5: BMS3h-56-1 (other)
VH: B4 VH with Y102T, Q104E, E105D
notes: domain antibody (dAb), single VH domain; also called 3h-56-l
B6: BMS3h-56-215 (other)
VH: B4 VH with Q54H, T56S, R57L, Y102T, Q104D, E105D
notes: as for B4
B7: BMS3h-56-5 (other)
VH: B4 VH with K65M, Y102T, Q104D, E105D
notes: domain antibody (dAb), single VH domain
B8: BMS3h-56-206 (other)
VH: B4 VH with Y95H, F101M, Y102F, Q104E, E105D, S116N
notes: as for B7
B9: BMS3h-56-202 (other)
VH: B4 VH with F101T, Q104S, E105D, W106R
notes: as for B7
B10: BMS3h-56-203 (other)
VH: B4 VH with Y102F, Q104E
notes: as for B4
B11: BMS3h-56-2 (other)
VH: B4 VH with Y102T, Q104D, E105D
notes: as for B7
B12: BMS3h-56-206 (other)
VH: B4 VH with Y95H, F101M, Y102F, Q104E, E105D, S116N
B13: BMS3h-56-217 (other)
VH: B4 VH with Q54W, T56S, R57L, Y102T, Q104E, E105D
notes: as for B7
B14: BMS3h-56-202 (other)
VH: B4 VH with F101T, Q104S, E105D, W106R

Tests used:
human CD40 = human CD40 (human, UniProt P25942 21-277); assay: cell-based or functional assay
Macaca fascicularis CD40 = target: T1, Macaca fascicularis CD40 (Macaca fascicularis (cynomolgus monkey), UniProt P25942 21-277 (human entry)); assay: cell-based or functional assay
T1 chain: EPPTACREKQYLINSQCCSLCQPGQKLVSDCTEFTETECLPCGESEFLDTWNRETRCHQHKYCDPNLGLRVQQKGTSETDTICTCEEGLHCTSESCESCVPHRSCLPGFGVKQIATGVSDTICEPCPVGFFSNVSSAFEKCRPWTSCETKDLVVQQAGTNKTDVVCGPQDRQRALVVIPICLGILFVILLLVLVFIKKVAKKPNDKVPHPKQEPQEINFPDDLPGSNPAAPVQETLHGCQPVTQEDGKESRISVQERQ

[1] = target: human CD40 on RAMOS human B cells (human, UniProt P25942 21-277); assay: cell-based or functional assay
[2] = target: T2, human CD40 (BMS, CY24FEB06-01) (human, UniProt P25942 21-193); assay: ELISA RBA, competition with IZ-CD40L for soluble human CD40;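 further: Neutravidin-coated 384-well plates, dAb–human CD40 complex incubated 2 h at room temperature, read-out as absorbance at 450 nm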
T2 construct: Soluble human CD40 reagent of the ELISA RBA
Protocol: Clear walled High Bind, 384-well plates (Corning, UK) were coated with 25 μl of 1 μg/ml Neutravidin in 0.2 M carbonate-bicarbonate buffer, pH 9.4 overnight at 4° C. The following day, assay plates were washed with 0.1% (v/v) Tween PBS buffer, blocked with 1% (w/v) BSA in PBS for 1 hour at room temperature and washed again. […] Following washing of the assay plate, the dAb:human CD40 complex was incubated in the assay plate at room temperature for 2 hours with gentle agitation. […] Absorbance signal was measured using a SpectraMax® M5e plate reader (Molecular Devices) at 450 nm following neutralization with 1M HCl solution.

[3] = target: T3, wild type cynomolgus monkey CD40 Fc fusion (cynomolgus monkey; human); assay: SPR ProteOn XPR36;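 further: surface plasmon resonance with CD40-Fc fusions captured through their Fc on an anti-human IgG chip, sensorgrams reference-subtracted against surfaces lacking CD40-Fc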
T3 construct: also called wt-cyno-CD40; wt-cCD40; not shown: human IgG1 Fc
T3 chain: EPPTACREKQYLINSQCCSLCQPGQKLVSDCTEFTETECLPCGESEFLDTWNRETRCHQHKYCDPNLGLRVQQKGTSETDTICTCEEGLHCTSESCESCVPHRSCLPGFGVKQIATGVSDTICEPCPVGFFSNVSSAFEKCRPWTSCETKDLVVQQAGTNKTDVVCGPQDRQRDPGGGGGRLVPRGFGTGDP

[4] = target: T4, human CD40 (W109L, L121P) Fc fusion (human, UniProt P25942 21-193); assay: SPR ProteOn XPR36;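 further: surface plasmon resonance with CD40-Fc fusions captured through their Fc on an anti-human IgG chip, sensorgrams reference-subtracted against surfaces lacking CD40-Fc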
T4 construct: As m1 with W109L and L121P; also called hCD40-M4; not shown: human IgG1 Fc

[5] = target: T5, human CD40 (H76R, W109L, L121P) Fc fusion (human); assay: SPR ProteOn XPR36;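 further: surface plasmon resonance with CD40-Fc fusions captured through their Fc on an anti-human IgG chip, sensorgrams reference-subtracted against surfaces lacking CD40-Fc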
T5 construct: As m1 with H76R, W109L and L121P; also called hCD40-M5; not shown: human IgG1 Fc
T5 chain: T3 chain with S95A, L106S, R142H, Q172L

Binder	EC50 ICAM1 cell assay [1]	binding result [3]	binding result [4]	binding result [5]	other results
B1	–	–	–	–	CHO-hCD40L-driven DC Activation IL-12 EC50 (human CD40): 13 nM; T-B cell MLR EC50 (human CD40): 198 nM; hIZCD40L-driven Human B Cell Proliferation EC50 (human CD40): 5 nM; hIZCD40L-driven Cyno B Cell Proliferation EC50 (Macaca fascicularis CD40): > 7000 nM
B2	–	–	–	–	hIZCD40L-driven Human B Cell Proliferation EC50 (human CD40): 2800 nM; hIZCD40L-driven Cyno B Cell Proliferation EC50 (Macaca fascicularis CD40): > 7000 nM
B3	–	–	–	–	CHO-hCD40L-driven DC Activation IL-12 EC50 (human CD40): 289 nM; CHO-hCD40L-driven Human B Cell Proliferation EC50 (human CD40): 723 nM; T-B cell MLR EC50 (human CD40): 986 nM; hIZCD40L-driven Human B Cell Proliferation EC50 (human CD40): 10 nM; hIZCD40L-driven Cyno B Cell Proliferation EC50 (Macaca fascicularis CD40): > 7000 nM
B4	10 nM	–	–	–	EC50 [2]: 3.7 nM and 2.3 nM
B5	–	no binding (tested: 405 nM)	no binding (tested: 405 nM)	no binding (tested: 405 nM)	–
B6	40 nM	–	–	–	EC50 [2]: 3.2 nM and 4.6 nM
B7	–	no binding (tested: 405 nM)	no binding (tested: 405 nM)	no binding (tested: 405 nM)	–
B8	–	no binding (tested: 405 nM)	no binding (tested: 405 nM)	no binding (tested: 405 nM)	–
B9	–	no binding (tested: 405 nM)	no binding (tested: 405 nM)	no binding (tested: 405 nM)	–
B10	70 nM	–	–	–	EC50 [2]: 5.2 nM and 4.3 nM
B11	–	no binding (tested: 405 nM)	no binding (tested: 405 nM)	no binding (tested: 405 nM)	–
B12	5 nM	–	–	–	–
B13	–	no binding (tested: 405 nM)	no binding (tested: 405 nM)	no binding (tested: 405 nM)	–
B14	80 nM	–	–	–	–
